Experimental data: paper PMC3797800, “The Coordination of Cell Growth during Fission Yeast Mating Requires Ras1-GTP Hydrolysis” (PLoS ONE, 2013)

Biological target: T1, CFP-Ras1 (S. pombe, UniProt P08647 1-219)
T1 construct: Ras1, small GTPase of Schizosaccharomyces pombe; ORF amplified from the start codon to the stop codon and cloned behind CFP; also called Ras1-GTP; source: S. pombe (strain JY1618, Δras1Δgap1), expressed from pREP4x (nmt1 promoter), in living cells; not shown: CFP, N-terminal, kept
T1 sequence (looked up): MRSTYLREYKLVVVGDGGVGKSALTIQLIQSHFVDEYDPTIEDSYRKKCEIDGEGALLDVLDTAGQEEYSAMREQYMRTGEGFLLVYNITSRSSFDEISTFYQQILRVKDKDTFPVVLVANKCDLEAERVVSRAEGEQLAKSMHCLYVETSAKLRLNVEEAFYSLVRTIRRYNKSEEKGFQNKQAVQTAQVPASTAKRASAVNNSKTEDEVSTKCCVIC
Assay: FRET or BRET; FACS-based FRET (405 nm excitation, 585/42 nm emission), living S. pombe cells co-expressing CFP and YFP fusions; percent of cells with a FRET signal over 0-8 h after 10 μM pheromone
Conditions: partners not purified

B1: Gap1-YFP (natural protein, S. pombe, UniProt P33277 1-766, looked up)
chain: MTKRHSGTLSSSVLPQTNRLSLLRNRESTSVLYTIDLDMESDVEDAFFHLDRELHDLKQQISSQSKQNFVLERDVRYLDSKIALLIQNRMAQEEQHEFAKRLNDNYNAVKGSFPDDRKLQLYGALFFLLQSEPAYIASLVRRVKLFNMDALLQIVMFNIYGNQYESREEHLLLSLFQMVLTTEFEATSDVLSLLRANTPVSRMLTTYTRRGPGQAYLRSILYQCINDVAIHPDLQLDIHPLSVYRYLVNTGQLSPSEDDNLLTNEEVSEFPAVKNAIQERSAQLLLLTKRFLDAVLNSIDEIPYGIRWVCKLIRNLTNRLFPSISDSTICSLIGGFFFLRFVNPAIISPQTSMLLDSCPSDNVRKTLATIAKIIQSVANGTSSTKTHLDVSFQPMLKEYEEKVHNLLRKLGNVGDFFEALELDQYIALSKKSLALEMTVNEIYLTHEIILENLDNLYDPDSHVHLILQELGEPCKSVPQEDNCLVTLPLYNRWDSSIPDLKQNLKVTREDILYVDAKTLFIQLLRLLPSGHPATRVPLDLPLIADSVSSLKSMSLMKKGIRAIELLDELSTLRLVDKENRYEPLTSEVEKEFIDLDALYERIRAERDALQDVHRAICDHNEYLQTQLQIYGSYLNNARSQIKPSHSDSKGFSRGVGVVGIKPKNIKSSNTVKLSSQQLKKESVLLNCTIPEFNVSNTYFTFSSPSTDNFVIAVYQRGHSKVLVEVCICLDDVLQRRYASNPVVDLGFLTFEANKLYHLFEQLFLRK
notes: ORF amplified from the start codon, stop codon removed, cloned in front of YFP; source: S. pombe, expressed from pREP3x (nmt1 promoter), in living cells; not shown: YFP, C-terminal, kept
With B1 the “fold increase of the percent of cells with a FRET signal, 30 min pheromone against time 0” value was 2 fold.
